Patent US7745574B2, “Compounds that regulate apoptosis” (The Burnham Institute, priority 2005, dated 2010)
Entries after “also recorded” stand apart in the source; their conditions may differ. Where no end group is shown, it is not given here. [ ]: non-standard residue; d: D form. Ahx = NCCCCCC(=O)O

Legend:
mitochondria = assay: Subcellular localization, colocalization with RFP-Mito; assay type: cell-based
Protocol: Subcellular localization assays—Cells were seeded onto cover-slips in 6-well plates overnight, then transiently transfected with GFP-fusion expression plasmids. After 16 hours, cells were washed with PBS and fixed in 4% paraformaldehyde. […] For cyt c staining, cells were incubated with monoclonal anti-cyt c IgG (PharMingen), followed by anti-mouse IgG conjugated with Cy5 (Amersham). Fluorescent images were collected and analyzed using a MRC-1024 MP laser-scanning confocal microscope (Bio-Rad). Subcellular fractionation assays were performed as described (Li, et al. 2000 Science 289:1159-1164). Briefly, cells (1×10^7 cells) suspended in 0.5 ml hypotonic buffer (5 mM Tris-HCl, pH 7.4, 5 mM KCl, 1.5 mM MgCl2, 0.1 mM EGTA, pH 8.0, and 1 mM DTT) were homogenized and cell extracts were centrifuged at 500×g for 5 min. The resulting supernatant was centrifuged at 10,000×g for 30 min at 4° C. to obtain the HM fraction. HM fraction was resuspended in 100 μl lysis buffer (10 mM Tris, pH 7.4, 150 mM NaCl, 1% Triton X-100, 5 mM EDTA, pH 8.0) for immunoblotting analysis.

Mcl-1 = Mcl-1 (Homo sapiens, UniProt Q07820); assay: Co-immunoprecipitation with myc-tagged Mcl-1 in HEK293T cells; assay type: binding
Protocol: (§1) Nur77 peptide binds anti-apoptotic Bcl-2 family members. Nur77-peptide binds Bcl-B, Bfl-1, and Bcl-2, but not Mcl-1 and Bcl-xL. […] The expression vector for the GFP-Nur77/489-497 fusion was transfected into HEK293T cells together with or without the indicated expression vector for myc-tagged Bcl-2 family member. Cell lysates were prepared and analyzed for interaction of Nur77/489-497 with Bcl-2 family members by co-immunoprecipitation assay using anti-Myc antibody. Immunoprecipitates were then separated on SDS/PAGE and immunoblotted using anti-GFP antibody. […] Nur77/Bcl-2 interaction assays—Reporter gene assays using NurRE-tk-CAT in CV-1 cells, and GST pull-down assay were described previously (Li, et al. 2000 Science 289:1159-1164). For the mammalian two-hybrid assays, CV-1 cells were co-transfected with pcDNA-Gal4TAD-Nur77 or pcDNA-Gal4TAD-Nur77/ΔDBD and pcDNA-Gal4 DBD-Bcl-2/ΔTM along with a luciferase reporter gene driven by four copies of the Gal-4-binding site. The cells were harvested and reporter gene activity was measured. […] Immunoreactive products were detected by chemiluminescence with an enhanced chemiluminescence system (ECL) (Amersham).

Bcl-2 [1] = molecular target: T1, Bcl-2 (Homo sapiens, UniProt P10415); assay: Co-immunoprecipitation with Bcl-2 in HEK293T cells; assay type: binding; parameters: expressed in transfected cells; host or cells: HEK293T
Protocol: as §1, with “measured. For Co-IP assays, HEK293T cells were transiently transfected with various expression plasmids using a modified calcium phosphate precipitation method (Wu et al, 1997) in the presence of caspase inhibitors (zVAD-fmk) to prevent degradation of Nur77 protein due to apoptosis. Cells were suspended in lysis buffer (50 mM Tris-HCl, PH7.4; 150 mM NaCl; 20 mM EDTA; 1% NP-40; 1 mM PMSF; 50 μg/ml Leupeptin; […]; 0.1 mM Na3VO4; and 1 mM DTT). Cells extracts were cleared by incubation with the Protein A/G plus Agarose beads (Santa Cruz) and then incubated with appropriate antibody and 30 μl of Protein A or G plus Agarose beads overnight at 4° C.” for “measured.”
Target sequence in this assay (P10415 whole entry): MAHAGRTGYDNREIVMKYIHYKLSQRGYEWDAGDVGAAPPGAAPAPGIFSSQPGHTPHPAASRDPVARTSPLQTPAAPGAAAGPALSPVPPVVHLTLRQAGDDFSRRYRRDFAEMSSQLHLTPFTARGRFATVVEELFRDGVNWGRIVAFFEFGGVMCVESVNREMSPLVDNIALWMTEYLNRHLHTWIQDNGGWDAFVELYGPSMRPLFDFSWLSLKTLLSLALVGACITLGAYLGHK

Bfl-1 = molecular target: T2, Bfl-1 (Homo sapiens, UniProt Q16548); assay: Co-immunoprecipitation with myc-tagged Bfl-1 in HEK293T cells; assay type: binding
T2 construct: expressed in transfected cells; host or cells: HEK293T
T2 sequence (Q16548 1-175): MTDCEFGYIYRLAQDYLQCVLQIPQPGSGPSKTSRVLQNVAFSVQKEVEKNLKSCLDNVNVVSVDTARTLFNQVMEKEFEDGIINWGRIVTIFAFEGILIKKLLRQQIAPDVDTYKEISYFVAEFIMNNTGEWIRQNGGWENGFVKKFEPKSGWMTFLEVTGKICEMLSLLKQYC
Protocol: as §1

[2] = Induction of apoptosis by Nur77 peptides, cell line not stated; assay type: cell-based
Protocol: Apoptosis assays—For nuclear morphological change analysis, cells were trypsinized, washed with PBS, fixed with 3.7% paraformaldehyde, and stained with DAPI (4,6-diamidino-2-phenylindole) (50 μg/ml) to visualize the nuclei by UV-microscopy. The percentages of apoptotic cells were determined by counting 300 GFP-positive cells, scoring cells having nuclear fragmentation and/or chromatin condensation.

Bcl-XL = Bcl-XL (Homo sapiens, UniProt Q07817); assay: Co-immunoprecipitation with myc-tagged Bcl-XL in HEK293T cells; assay type: binding
Protocol: as §1

Bcl-B = molecular target: T3, Bcl-B (Homo sapiens, UniProt Q9HD36); assay: Co-immunoprecipitation with myc-tagged Bcl-B in HEK293T cells; assay type: binding
T3 construct: expressed in transfected cells; host or cells: HEK293T
T3 sequence (Q9HD36 1-204): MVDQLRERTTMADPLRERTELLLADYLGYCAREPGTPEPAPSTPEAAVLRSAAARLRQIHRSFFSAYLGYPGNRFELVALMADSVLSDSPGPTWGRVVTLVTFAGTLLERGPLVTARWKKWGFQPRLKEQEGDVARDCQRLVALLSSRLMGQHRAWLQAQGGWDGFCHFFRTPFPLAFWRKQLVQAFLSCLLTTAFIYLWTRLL
Protocol: as §1

H460 lung cancer cells [3] = assay: Apoptosis in H460 lung cancer cells; assay type: cell-based; conditions: H460 cells; peptides conjugated with CPP, 10 μM
Bcl-2 [4] = molecular target: T1, Bcl-2; assay: Bcl-2 conformational change, anti-Bcl-2/BH3 antibody staining of HEK293T cells transfected with Bcl-2; assay type: cell-based; parameters: expressed in transfected cells; host or cells: HEK293T
Protocol: Such a Bcl-2 conformation is recognized by an anti-Bcl-2 antibody raised against the Bcl-2 BH3 domain. To determine whether NuBCP-9 induced a Bcl-2 conformational change, flow cytometric assays were conducted which HEK293T cells transfected with Bcl-2 were exposed to NuBCPs and subsequently stained with the anti-Bcl-2/BH3 antibody.
Target sequence in this assay (P10415 whole entry): as the sequence (P10415 whole entry) above

Bcl-2 [5] = molecular target: T1, Bcl-2; assay: Competition assay of Nur77/ΔDBD binding with Bcl-2; parameters: expressed in transfected cells; host or cells: HEK293T
Protocol: Nur77/Bcl-2 interaction assays—Reporter gene assays using NurRE-tk-CAT in CV-1 cells, and GST pull-down assay were described previously (Li, et al. 2000 Science 289:1159-1164). For the mammalian two-hybrid assays, CV-1 cells were co-transfected with pcDNA-Gal4TAD-Nur77 or pcDNA-Gal4TAD-Nur77/ΔDBD and pcDNA-Gal4 DBD-Bcl-2/ΔTM along with a luciferase reporter gene driven by four copies of the Gal-4-binding site. The cells were harvested and reporter gene activity was measured. For Co-IP assays, HEK293T cells were transiently transfected with various expression plasmids using a modified calcium phosphate precipitation method (Wu et al, 1997) in the presence of caspase inhibitors (zVAD-fmk) to prevent degradation of Nur77 protein due to apoptosis. Cells were suspended in lysis buffer (50 mM Tris-HCl, PH7.4; 150 mM NaCl; 20 mM EDTA; 1% NP-40; 1 mM PMSF; 50 μg/ml Leupeptin; […] Aprotinin; 0.1 mM Na3VO4; and 1 mM DTT). Cells extracts were cleared by incubation with the Protein A/G plus Agarose beads (Santa Cruz) and then incubated with appropriate antibody and 30 μl of Protein A or G plus Agarose beads overnight at 4° C. […] Immunoreactive products were detected by chemiluminescence with an enhanced chemiluminescence system (ECL) (Amersham).
Target sequence in this assay (P10415 whole entry): as the sequence (P10415 whole entry) above

breast cancer = assay: Treatment of a patient diagnosed with breast cancer; assay type: in vivo; conditions: intravenous dose at regular intervals over six weeks
Excerpt: A patient diagnosed with breast cancer is selected for treatment with the D-NuBCP-9-r8 peptide. The patient is given a therapeutically effective intravenous dose of the peptide at regular intervals over a six week period. Following the end of the treatment period it is observed that the breast cancer has regressed.

[6] = test system: MDA-MB435 breast carcinoma cells; assay: MDA-MB435 tumors in SCID mice; assay type: in vivo
Protocol: Animal studies. Female SCID mice (6-week-old) (Tacomic) were injected with 10^6 MDA-MB435 breast carcinoma cells. Tumors were palpable on day 7. On days 10 and 13, test peptides (620 μg in 50 μL PBS) were injected into the tumor areas of 5 mice. Tumor volumes (1×w^2) were determined using calipers. No weight changes were observed. Established tumors in control mice were injected with test peptides and tumor tissues were excised and sectioned after 3 days. Tissues were fixed (10% buffered formalin), then rapidly paraffin-embedded. Apoptosis was detected by the TUNEL assay.

Bcl-2 [7] = molecular target: T1, Bcl-2; assay: Immunoprecipitation of endogenous Bcl-2 by anti-Bcl-2/BH3 antibody in treated cells; assay type: cell-based; parameters: precipitated endogenous Bcl-2 in cells treated with L-NuBCP-9-r8 or D-NuBCP-9-r8; endogenous in cells
Target sequence in this assay (P10415 whole entry, species assumed): as the sequence (P10415 whole entry) above

H460 lung cancer cells [8] = assay: Apoptosis in H460 lung cancer cells; assay type: cell-based
Protocol: Bcl-2 siRNAs and antisense oligonucleotides-The target siRNA SMARTpools for Bcl-2 and Bak and the siRNA oligonucleotide for Nur77 (5'-[…] NO: 67) were purchased from Dharmacon Research Inc. Target or control siRNA were transfected at a final concentration of 200 nM into cells at 40% confluency using Oligofectamine reagent (Invitrogen) according to the manufacturer's recommendations. After 48 h, cells were analyzed. Bcl-2 antisense oligonucleotide targeting Bcl-2 and negative control oligonucleotides were obtained from Calbiochem. […] The percentages of apoptotic cells were determined by counting 300 GFP-positive cells, scoring cells having nuclear fragmentation and/or chromatin condensation. Cell culture. […] HEK293T embryonic kidney cells were grown in DME medium supplemented with 10% FBS. Jurkat and Jurkat cells stably expressing Bcl-2 were kindly provided by Dr. John Reed, and they were maintained in RPMI1640 medium.

Mcl-1, sequence (Q07820 whole entry, species assumed, the tested form may be a part): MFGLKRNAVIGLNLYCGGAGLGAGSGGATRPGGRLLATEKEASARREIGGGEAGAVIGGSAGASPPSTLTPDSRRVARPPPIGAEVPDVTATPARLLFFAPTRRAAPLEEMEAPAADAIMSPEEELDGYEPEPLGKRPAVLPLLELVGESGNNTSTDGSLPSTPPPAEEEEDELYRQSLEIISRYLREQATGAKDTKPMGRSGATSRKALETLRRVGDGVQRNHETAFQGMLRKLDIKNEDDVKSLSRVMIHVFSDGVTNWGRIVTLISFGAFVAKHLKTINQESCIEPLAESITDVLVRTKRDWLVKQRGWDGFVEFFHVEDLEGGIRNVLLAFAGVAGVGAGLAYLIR
Bcl-XL, sequence (Q07817 whole entry, species assumed): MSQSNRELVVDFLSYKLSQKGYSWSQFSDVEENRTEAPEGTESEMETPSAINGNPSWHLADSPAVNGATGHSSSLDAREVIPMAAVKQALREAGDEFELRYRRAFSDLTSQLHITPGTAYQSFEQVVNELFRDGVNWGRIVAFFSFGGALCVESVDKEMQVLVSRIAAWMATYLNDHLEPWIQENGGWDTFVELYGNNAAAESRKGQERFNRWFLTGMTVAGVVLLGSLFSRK

Substance	colocalization with RFP-Mito (mitochondria)	interaction with Mcl-1 by co-immunoprecipitation (Mcl-1)	interaction with Bcl-2 by co-immunoprecipitation (Bcl-2 [1])	interaction with Bfl-1 by co-immunoprecipitation (Bfl-1)	induction of apoptosis [2]	interaction with Bcl-XL by co-immunoprecipitation (Bcl-XL)	interaction with Bcl-B by co-immunoprecipitation (Bcl-B)	apoptotic effect (H460 lung cancer cells [3])	Bcl-2 immunofluorescence by anti-Bcl-2/BH3 antibody (Bcl-2 [4]; flow cytometry)	Bcl-2 staining by anti-Bcl-2/BH3 antibody (Bcl-2 [4]; fluorescence microscopy)	binding of Nur77/ΔDBD with Bcl-2 in presence of peptide (Bcl-2 [5])	breast cancer outcome after treatment (breast cancer)	growth of tumors ([6]; SCID mice, 620 μg injected into tumor areas on days 10 and 13, vs control NuBCP-9/AA-r8)	apoptosis of tumor cells in vivo ([6]; TUNEL assay)	precipitation of endogenous Bcl-2 by anti-Bcl-2/BH3 antibody (Bcl-2 [7])	apoptotic function after Bcl-2 antisense oligonucleotides (H460 lung cancer cells [8]; Bcl-2 antisense oligonucleotides)	apoptotic effect after transfection of Bcl-2 siRNA (H460 lung cancer cells [8]; H460 cells, Bcl-2 siRNA vs control GFP siRNA)
GFP-Nur77/489-497: NuBCP-9 (Nur77/489-497) sequence cloned as a green fluorescence protein (GFP) fusion (FSRSLHSLL; also: fused to GFP)	colocalized extensively	not	precipitated by anti-Bcl-2 antibody only when Bcl-2 was co-expressed; also recorded: interacts	interacts	apoptotic	not	interacts	–	–	–	–	–	–	–	–	–	–
acetyl------------fsrslhsllGXrrrrrrrr-amide (Ac-[dF][dS][dR][dS][dL][dH][dS][dL][dL]G[Ahx][dR][dR][dR][dR][dR][dR][dR][dR]-NH2; SMILES CC(=O)N[C@H](Cc1ccccc1)C(=O)N[C@H](CO)C(=O)N[C@H](CCCNC(=N)N)C(=O)N[C@H](CO)C(=O)N[C@H](CC(C)C)C(=O)N[C@H](Cc1c[nH]cn1)C(=O)N[C@H](CO)C(=O)N[C@H](CC(C)C)C(=O)N[C@H](CC(C)C)C(=O)NCC(=O)NCCCCCC(=O)N[C@H](CCCNC(=N)N)C(=O)N[C@H](CCCNC(=N)N)C(=O)N[C@H](CCCNC(=N)N)C(=O)N[C@H](CCCNC(=N)N)C(=O)N[C@H](CCCNC(=N)N)C(=O)N[C@H](CCCNC(=N)N)C(=O)N[C@H](CCCNC(=N)N)C(=O)N[C@H](CCCNC(=N)N)C(N)=O) [D-NuBCP-9-r8]	–	–	–	–	–	–	–	retained and even slightly enhanced	strong Bcl-2 immunofluorescence	strongly stained	abrogated	regressed	dramatically suppressed	potently induced	precipitated	attenuated	inhibited
